Experimental data taken from PMC6233052 (Molecular Biology of the Cell, 2018).
Substitutions are numbered along the chain they refer to.

T1: HA-tagged full-length FliI (UniProt Q9JJ28 1-1271)
T1 sequence: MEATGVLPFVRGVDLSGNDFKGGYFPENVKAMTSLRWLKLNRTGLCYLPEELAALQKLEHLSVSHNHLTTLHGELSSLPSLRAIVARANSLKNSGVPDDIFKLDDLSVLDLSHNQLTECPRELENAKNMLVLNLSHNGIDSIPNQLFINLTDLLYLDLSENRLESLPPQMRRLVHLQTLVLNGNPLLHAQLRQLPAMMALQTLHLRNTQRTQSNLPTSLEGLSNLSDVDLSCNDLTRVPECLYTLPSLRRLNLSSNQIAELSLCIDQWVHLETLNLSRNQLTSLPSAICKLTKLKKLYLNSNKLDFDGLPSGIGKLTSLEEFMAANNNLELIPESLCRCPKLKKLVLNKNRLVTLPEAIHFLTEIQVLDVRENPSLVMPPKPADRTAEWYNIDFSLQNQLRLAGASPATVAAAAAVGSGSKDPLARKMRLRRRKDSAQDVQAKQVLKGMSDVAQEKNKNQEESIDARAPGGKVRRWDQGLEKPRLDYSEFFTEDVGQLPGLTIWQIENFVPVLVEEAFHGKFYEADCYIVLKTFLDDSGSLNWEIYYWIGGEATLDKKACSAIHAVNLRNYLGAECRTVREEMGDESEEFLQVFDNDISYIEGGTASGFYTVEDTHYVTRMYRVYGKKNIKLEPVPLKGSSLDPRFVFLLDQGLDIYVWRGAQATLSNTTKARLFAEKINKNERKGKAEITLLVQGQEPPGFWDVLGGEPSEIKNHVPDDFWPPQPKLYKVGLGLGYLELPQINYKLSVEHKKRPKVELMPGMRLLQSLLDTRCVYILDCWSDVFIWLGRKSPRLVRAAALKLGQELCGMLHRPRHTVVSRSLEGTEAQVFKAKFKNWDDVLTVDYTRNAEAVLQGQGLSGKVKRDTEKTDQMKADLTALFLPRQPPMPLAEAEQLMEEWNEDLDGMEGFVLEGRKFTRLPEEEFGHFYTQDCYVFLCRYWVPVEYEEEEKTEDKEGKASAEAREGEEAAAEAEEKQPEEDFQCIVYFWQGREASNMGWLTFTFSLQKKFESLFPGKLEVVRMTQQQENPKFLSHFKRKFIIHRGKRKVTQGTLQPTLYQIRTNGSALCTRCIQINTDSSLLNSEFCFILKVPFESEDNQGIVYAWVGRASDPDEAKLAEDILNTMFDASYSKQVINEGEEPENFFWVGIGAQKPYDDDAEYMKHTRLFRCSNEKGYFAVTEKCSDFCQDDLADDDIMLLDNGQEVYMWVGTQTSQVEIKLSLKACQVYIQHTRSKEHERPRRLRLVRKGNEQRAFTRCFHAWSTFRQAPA

T2: HA-tagged constitutively active R-ras (G38V) (UniProt P10301 1-218, G38V)
T2 sequence: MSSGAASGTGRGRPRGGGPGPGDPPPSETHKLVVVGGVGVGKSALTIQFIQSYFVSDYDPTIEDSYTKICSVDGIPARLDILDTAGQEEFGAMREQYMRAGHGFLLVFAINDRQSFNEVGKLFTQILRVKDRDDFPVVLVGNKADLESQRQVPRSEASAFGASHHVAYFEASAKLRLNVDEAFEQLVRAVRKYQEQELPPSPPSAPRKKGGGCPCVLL

T3: HA-tagged CA R-ras mutant (P202A; P203A) (UniProt P10301 1-218, G38V | P202A | P203A)
T3 sequence: T2 sequence with P202A, P203A

T4: HA-tagged WT R-ras (UniProt P10301 1-218)
T4 sequence: T2 sequence with V38G

B1: R-ras, endogenous (natural protein)
chain: MSSGAASGTGRGRPRGGGPGPRDPPPGETHKLVVVGGGGVGKSALTIQFIQSYFVSDYDPTIEDSYTKICTVDGIPARLDILDTAGQEEFGAMREQYMRAGNGFLLVFAINDRQSFNEVGKLFTQILRVKDRDDFPIVLVGNKADLENQRQVLRSEASSFSASHHMTYFEASAKLRLNVDEAFEQLVRAVRKYQEQELPPSPPSAPRKKDGGCPCVLL
B2: Flightless I (FliI), endogenous (natural protein)
chain: T1 sequence

Columns and labels:
Assay in all cases: co-IP
[1] = biological target: T1, HA-tagged full-length FliI
HA-tagged FliI LRR = biological target: HA-tagged FliI LRR
[2] = biological target: T2, HA-tagged constitutively active R-ras …
[3] = biological target: T3, HA-tagged CA R-ras mutant (P202A; P203A)
HA-tagged WT R-ras = biological target: T4, HA-tagged WT R-ras

Binder	fold association compared with FliI GLD [1]	fold association compared with FliI GLD (HA-tagged FliI LRR)	fold association compared with DN R-ras [2]	fold reduction of association compared with CA R-ras [3]	fold association compared with DN R-ras (HA-tagged WT R-ras)
B1	4.6 fold	4 fold			
B2			3.5 fold	4 fold	2.5 fold
